The text below walks through data of patent US8853367.

The target of the assay is chimeric receptor comprising mouse TNFR1 external domain (AA 1 to AA 210) linked to the transmembrane and intracellular domains of mouse RANK (AA 210 to AA 625) (mouse). The assay is described as follows: cell-based or functional assay.
Sequence of chimeric receptor comprising mouse TNFR1 external domain (AA 1 to AA 210) linked to the transmembrane and intracellular domains of mouse RANK (AA 210 to AA 625) (mouse) (chain, as listed by the source mutant): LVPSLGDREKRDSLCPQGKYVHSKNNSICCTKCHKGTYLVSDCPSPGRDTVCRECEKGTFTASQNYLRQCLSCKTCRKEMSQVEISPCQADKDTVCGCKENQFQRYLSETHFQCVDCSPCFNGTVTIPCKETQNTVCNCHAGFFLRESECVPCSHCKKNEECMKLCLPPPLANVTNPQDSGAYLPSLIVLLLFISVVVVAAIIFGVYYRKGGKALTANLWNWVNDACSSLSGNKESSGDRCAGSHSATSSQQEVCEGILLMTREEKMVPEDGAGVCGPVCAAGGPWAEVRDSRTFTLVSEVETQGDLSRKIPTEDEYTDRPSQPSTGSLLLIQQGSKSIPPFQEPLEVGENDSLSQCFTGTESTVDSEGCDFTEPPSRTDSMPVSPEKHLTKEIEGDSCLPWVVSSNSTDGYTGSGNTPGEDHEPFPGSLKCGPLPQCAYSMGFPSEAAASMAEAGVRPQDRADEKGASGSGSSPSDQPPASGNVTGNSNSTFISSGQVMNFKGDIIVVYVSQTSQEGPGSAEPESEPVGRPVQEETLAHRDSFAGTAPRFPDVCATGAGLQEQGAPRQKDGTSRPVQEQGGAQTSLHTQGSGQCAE

For “Recombinant mouse TNFα (410-TRNC-050, R&D Systems) (from UniProt P06804 84-235) (ligand)”, the osteoclast formation, lowest TNFα concentration still active was 1 ng/mL.
